Measurements taken from US10260068B2, “Prophylactic agent and therapeutic agent for fibrodysplasia ossificans progressiva” (Sumitomo Dainippon Pharma Co., Ltd., priority 2014, dated 2019).

T1: FOP patient-derived ACVR1 (Homo sapiens, UniProt Q04771, R206H)
T1 construct: The patient cells were confirmed to be cells having a typical FOP-associated mutation in the ACVR1 gene; endogenous in cells; host or cells: mesenchymal stem cell-like cells differentiated from an FOP patient-derived iPS cell line
T1 sequence (Q04771 21-509 R206H): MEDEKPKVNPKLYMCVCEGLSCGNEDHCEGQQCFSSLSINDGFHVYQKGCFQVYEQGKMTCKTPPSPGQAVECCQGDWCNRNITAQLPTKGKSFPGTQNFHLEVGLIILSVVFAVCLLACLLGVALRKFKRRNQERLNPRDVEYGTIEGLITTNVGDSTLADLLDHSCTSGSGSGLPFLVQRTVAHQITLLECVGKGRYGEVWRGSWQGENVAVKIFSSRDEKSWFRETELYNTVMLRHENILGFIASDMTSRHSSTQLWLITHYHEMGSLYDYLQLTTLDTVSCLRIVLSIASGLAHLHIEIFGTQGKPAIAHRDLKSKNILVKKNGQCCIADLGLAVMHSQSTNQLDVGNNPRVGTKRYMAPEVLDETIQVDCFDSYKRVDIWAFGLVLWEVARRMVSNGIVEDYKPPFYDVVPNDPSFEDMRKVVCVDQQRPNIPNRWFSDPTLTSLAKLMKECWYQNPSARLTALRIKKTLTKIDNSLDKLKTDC

T2: wild type ACVR1 (Homo sapiens, UniProt Q04771)
T2 construct: an iPS cell line with the ACVR1 gene mutation repaired to the normal type (wild type) by gene repair by a BAC knockin vector; endogenous in cells; host or cells: mesenchymal stem cell-like cells differentiated from the gene-corrected iPS cell clone
T2 sequence (Q04771 21-509): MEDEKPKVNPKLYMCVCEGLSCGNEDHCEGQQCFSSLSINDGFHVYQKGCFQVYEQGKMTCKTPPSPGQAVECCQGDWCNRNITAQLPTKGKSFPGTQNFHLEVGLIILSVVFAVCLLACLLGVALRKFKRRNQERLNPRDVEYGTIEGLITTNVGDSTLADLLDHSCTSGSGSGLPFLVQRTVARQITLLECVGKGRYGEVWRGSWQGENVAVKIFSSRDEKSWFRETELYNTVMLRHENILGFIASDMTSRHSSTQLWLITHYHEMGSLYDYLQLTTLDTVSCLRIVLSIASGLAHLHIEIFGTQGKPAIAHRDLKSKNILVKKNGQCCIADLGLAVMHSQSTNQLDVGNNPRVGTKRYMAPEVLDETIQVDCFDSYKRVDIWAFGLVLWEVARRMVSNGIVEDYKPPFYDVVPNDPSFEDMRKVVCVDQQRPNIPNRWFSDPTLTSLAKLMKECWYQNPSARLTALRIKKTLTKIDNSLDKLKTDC


Legend:
[1] = biological target: T1, FOP patient-derived ACVR1; test: Luciferase reporter (BMP responsive sequence) transcription activity via ACVR1 in FOP patient derived cells; assay type: cell-based; details: ligand 1, 10, 100 ng/mL, 16 hours, significant at 10 and 100 ng/mL vs untreated group
From the text: (§1) Following the method of Yamanaka et al. (Cell, 2007, 131 (5), […]), FOP patient-derived iPS cells (hereunder also referred to as “patient-derived iPS cell line”) were established. The patient cells were confirmed to be cells having a typical FOP-associated mutation in the ACVR1 gene. The mutation is a substitution of the 206th arginine residue of the amino acid sequence of ACVR1 (the amino acid sequence listed as SEQ ID NO: 10) with a histidine residue. Next, for use as a control, an iPS cell line with the ACVR1 gene mutation repaired to the normal type (wild type) by gene repair by a BAC knockin vector (hereunder also referred to as “gene-corrected iPS cell clone” or “gene-rescued iPS cell clone”) was established.
(§2) The patient-derived iPS cell line and gene-corrected iPS cell line were cultured on the matrix of a Matrigel coated plate (trade name: Growth Factor Reduced (GFR)BD Matrigel® by Becton & Dickinson), using mTeSR1 (Stem Cell Technologies) for 2 days under feeder-free conditions. Next, using serum-free medium [F12 Nutrient Mixture (product of Gibco)/Iscove's Modified Dulbecco's Medium (IMDM) (product of Sigma-Aldrich Japan, KK.)/0.5% bovine serum albumin (BSA) (product of Sigma-Aldrich Japan, KK.)/1% Chemically Defined Lipid (CD-Lipid) (product of Gibco, trade name: Chemically Defined Lipid Concentrate)/15 μg/mL apotransferrin (product of Sigma-Aldrich Japan, KK., trade name: apo-Transferrin human)/7 μg/mL insulin (product of Wako Pure Chemical Industries, Ltd., trade name: Insulin, Human, recombinant)/0.45 mM 1-Thioglycerol (product of Sigma-Aldrich Japan, KK.)] with addition of 10 μM SB-431542 (product of Selleck Chemicals) and 1 μM CHIR99021 (product of Wako Pure Chemical Industries, Ltd.), the patient-derived iPS cell line and gene-corrected iPS cell line were further cultured for 1 week under feeder-free conditions for differentiation to neural crest cells. […]
(§3) After mixing Firefly luciferase reporter plasmid having the BMP responsive sequence in the promoter region (J. Biol. Chem., 2002, 277(7), 4883-4891) and a plasmid having a nucleic acid sequence coding for Renilla luciferase downstream from CMV promoter, as an internal standard (product of Promega Corp., trade name: phRL-CMV Vector), FuGene® HD (Promega Corp.) was used for transfection into the mesenchymal stem cell-like cells. […] Next, the luciferase activity was measured according to the protocol provided with a Dual-Glo Luciferase Assay System (product of Promega Corp.). The luminescence was detected using an EnVision Multilabel Counter (product of Perkin-Elmer). […]

wild type ACVR1 = biological target: T2, wild type ACVR1; test: Luciferase reporter (BMP responsive sequence) transcription activity in gene-corrected clone derived cells; assay type: cell-based; details: ligand 1, 10, 100 ng/mL, 16 hours
From the text: as §1, §2, §3

Molecule | transcription activity via ACVR1 (firefly/Renilla luciferase activity, BMP responsive sequence) [1] | transcription activity via ACVR1 (firefly/Renilla luciferase activity, BMP responsive sequence) (wild type ACVR1)
human activin A: Recombinant Human/Mouse/Rat Activin A (R&D Systems); homodimer of inhibin βA chains | significantly increased | not seen
BMP-7: Recombinant Human BMP-7 (R&D Systems); cytokine of the BMP family (protein) STGSKQRSQNRSKTPKNQEALRMANVAENSSSDQRQACKKHELYVSFRDLGWQDWIIAPEGYAAYYCEGECAFPLNSYMNATNHAIVQTLVHFINPETVPKPCCAPTQLNAISVLYFDDSSNVILKKYRNMVVRACGCH | increased in a concentration-dependent manner | increased in a concentration-dependent manner
